As usually defined, the IC50 is the concentration that inhibits the measured activity by half. The low end stands for greater potency in that assay, the high end for weaker potency in that assay.

For 10 molecules, KD-WT/KD-mut, Kd and IC50 results are on record in patent US20210238260A1 (published 2021).

The target in assay [1] is T1, Factor VIIIa (recombinant FVIII, Kogenate FS, activated with alpha-thrombin) (UniProt P00451 20-2351).
T1 construct: also called FVIIIa; cofactor
T1 sequence (looked up): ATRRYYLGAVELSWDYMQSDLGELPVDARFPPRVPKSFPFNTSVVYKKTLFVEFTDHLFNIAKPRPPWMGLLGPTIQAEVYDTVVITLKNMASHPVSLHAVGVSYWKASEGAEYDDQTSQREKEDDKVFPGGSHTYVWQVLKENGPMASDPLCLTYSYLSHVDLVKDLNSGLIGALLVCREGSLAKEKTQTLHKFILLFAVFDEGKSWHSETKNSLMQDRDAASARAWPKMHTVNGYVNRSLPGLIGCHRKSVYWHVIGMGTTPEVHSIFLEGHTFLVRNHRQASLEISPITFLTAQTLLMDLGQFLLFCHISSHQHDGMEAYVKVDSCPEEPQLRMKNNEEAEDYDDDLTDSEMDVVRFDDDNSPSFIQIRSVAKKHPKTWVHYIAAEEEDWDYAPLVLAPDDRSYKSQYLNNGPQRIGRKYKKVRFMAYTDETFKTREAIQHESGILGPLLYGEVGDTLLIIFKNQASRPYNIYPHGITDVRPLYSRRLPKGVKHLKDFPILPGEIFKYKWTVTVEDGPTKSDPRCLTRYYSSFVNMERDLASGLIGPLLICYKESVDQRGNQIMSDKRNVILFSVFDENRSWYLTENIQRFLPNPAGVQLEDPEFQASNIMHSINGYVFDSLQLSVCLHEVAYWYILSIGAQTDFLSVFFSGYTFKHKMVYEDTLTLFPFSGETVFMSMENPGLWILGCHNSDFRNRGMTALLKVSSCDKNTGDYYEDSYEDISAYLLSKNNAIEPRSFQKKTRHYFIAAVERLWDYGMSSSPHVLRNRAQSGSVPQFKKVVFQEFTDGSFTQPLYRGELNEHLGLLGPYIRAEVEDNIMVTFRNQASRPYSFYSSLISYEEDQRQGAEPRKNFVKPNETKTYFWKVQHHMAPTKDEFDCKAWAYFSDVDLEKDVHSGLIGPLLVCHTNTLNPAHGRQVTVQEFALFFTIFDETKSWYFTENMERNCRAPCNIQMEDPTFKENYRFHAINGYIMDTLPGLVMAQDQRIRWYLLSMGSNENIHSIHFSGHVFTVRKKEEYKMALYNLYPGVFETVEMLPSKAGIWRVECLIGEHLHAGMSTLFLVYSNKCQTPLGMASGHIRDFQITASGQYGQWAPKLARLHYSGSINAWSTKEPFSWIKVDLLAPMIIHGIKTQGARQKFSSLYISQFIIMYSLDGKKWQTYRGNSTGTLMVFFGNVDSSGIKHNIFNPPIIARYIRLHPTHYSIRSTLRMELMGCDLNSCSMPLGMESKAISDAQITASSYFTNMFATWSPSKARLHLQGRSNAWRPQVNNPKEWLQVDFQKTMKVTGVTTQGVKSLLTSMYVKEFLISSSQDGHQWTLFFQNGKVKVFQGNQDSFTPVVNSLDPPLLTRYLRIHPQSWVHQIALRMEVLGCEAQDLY
The experiment in a line: same assay; ratio of KD-app of Catalyst Biosciences WT FIXa to KD-app of this FIXa.

The target of assay [2] is T1, Factor VIIIa (recombinant FVIII, …). The experiment in a line: apparent functional KD (KD-app): FXa generation by FIXa with FVIIIa titrated, PC/PS vesicles, saturating FX, fluorogenic Spectrafluor FXa.
Assay [3] has as its target T2, plasma purified human antithrombin III (AT-III), in complex with unfractionated heparin (UFH) (human, UniProt P01008 33-464).
T2 construct: also called AT-III/UFH
The experiment in a line: K0.5: AT-III concentration (with excess UFH) for 50% inhibition of FIXa activity on Mesyl-D-CHG-Gly-Arg-AMC, 10 s incubation.

B1: FIXa-D104N/K106S/Y155F/R318Y/R338E/R403E/E410N (enzyme)
chain 1: YNSGKLEEFVQGNLERECMEEKCSFEEAREVFENTERTTEFWKQYVDGDQCESNPCLNGGSCKDDINSYECWCPFGFEGKNCELDVTCNIKNGRCEQFCKNSANNSVVCSCTEGYRLAENQKSCEPAVPFPCGRVSVSQTSKLTR
chain 2: VVGGEDAKPGQFPWQVVLNGKVDAFCGGSIVNEKWIVTAAHCVETGVKITVVAGEHNIEETEHTEQKRNVIRIIPHHNYNAAINKYNHDIALLELDEPLVLNSYVTPICIADKEYTNIFLKFGSGYVSGWGRVFHKGYSALVLQYLRVPLVDRATCLESTKFTIYNNMFCAGFHEGGRDSCQGDSGGPHVTEVEGTSFLTGIISWGEECAMKGKYGIYTKVSEYVNWIKNKTKLT
B1: in assay [1], the KD-WT/KD-mut turned out to be 1.6. For the same molecule, in assay [2], the Kd is 61.6 nM.

B2: FIXa-K247N/N249S/N260S (enzyme)
chain 1: YNSGKLEEFVQGNLERECMEEKCSFEEAREVFENTERTTEFWKQYVDGDQCESNPCLNGGSCKDDINSYECWCPFGFEGKNCELDVTCNIKNGRCEQFCKNSADNKVVCSCTEGYRLAENQKSCEPAVPFPCGRVSVSQTSKLTR
chain 2: VVGGEDAKPGQFPWQVVLNGKVDAFCGGSIVNEKWIVTAAHCVETGVKITVVAGEHNIEETEHTEQNRSVIRIIPHHNYSAAINKYNHDIALLELDEPLVLNSYVTPICIADKEYTNIFLKFGSGYVSGWGRVFHKGRSALVLQYLRVPLVDRATCLRSTKFTIYNNMFCAGFHEGGRDSCQGDSGGPHVTEVEGTSFLTGIISWGEECAMKGKYGIYTKVSRYVNWIKEKTKLT
notes: also called K82N/N84S/N95S (chymotrypsin numbering)
For the molecule B2, it took 157 nM to reach half-maximal inhibition in assay [3] (IC50). In other words, the sub-micromolar range.

B3: FIXa-Y155F/K247N/N249S/N260S (enzyme)
chain 1: YNSGKLEEFVQGNLERECMEEKCSFEEAREVFENTERTTEFWKQYVDGDQCESNPCLNGGSCKDDINSYECWCPFGFEGKNCELDVTCNIKNGRCEQFCKNSADNKVVCSCTEGYRLAENQKSCEPAVPFPCGRVSVSQTSKLTR
chain 2: VVGGEDAKPGQFPWQVVLNGKVDAFCGGSIVNEKWIVTAAHCVETGVKITVVAGEHNIEETEHTEQNRSVIRIIPHHNYSAAINKYNHDIALLELDEPLVLNSYVTPICIADKEYTNIFLKFGSGYVSGWGRVFHKGRSALVLQYLRVPLVDRATCLRSTKFTIYNNMFCAGFHEGGRDSCQGDSGGPHVTEVEGTSFLTGIISWGEECAMKGKYGIYTKVSRYVNWIKEKTKLT
For B3, the IC50 in assay [3] amounted to 152 nM.

B4: FIXa-R318Y/R338E/R403E (enzyme)
chain 1: YNSGKLEEFVQGNLERECMEEKCSFEEAREVFENTERTTEFWKQYVDGDQCESNPCLNGGSCKDDINSYECWCPFGFEGKNCELDVTCNIKNGRCEQFCKNSADNKVVCSCTEGYRLAENQKSCEPAVPFPCGRVSVSQTSKLTR
chain 2: VVGGEDAKPGQFPWQVVLNGKVDAFCGGSIVNEKWIVTAAHCVETGVKITVVAGEHNIEETEHTEQKRNVIRIIPHHNYNAAINKYNHDIALLELDEPLVLNSYVTPICIADKEYTNIFLKFGSGYVSGWGRVFHKGYSALVLQYLRVPLVDRATCLESTKFTIYNNMFCAGFHEGGRDSCQGDSGGPHVTEVEGTSFLTGIISWGEECAMKGKYGIYTKVSEYVNWIKEKTKLT
notes: also called R150Y/R170E/R233E
Regarding B4, in assay [1], the KD-WT/KD-mut was 0.3. Moreover, the Kd in assay [2] turned out to be 340 nM.

B5: FIXa-R338E/R403E/E410N (enzyme)
chain 1: YNSGKLEEFVQGNLERECMEEKCSFEEAREVFENTERTTEFWKQYVDGDQCESNPCLNGGSCKDDINSYECWCPFGFEGKNCELDVTCNIKNGRCEQFCKNSADNKVVCSCTEGYRLAENQKSCEPAVPFPCGRVSVSQTSKLTR
chain 2: VVGGEDAKPGQFPWQVVLNGKVDAFCGGSIVNEKWIVTAAHCVETGVKITVVAGEHNIEETEHTEQKRNVIRIIPHHNYNAAINKYNHDIALLELDEPLVLNSYVTPICIADKEYTNIFLKFGSGYVSGWGRVFHKGRSALVLQYLRVPLVDRATCLESTKFTIYNNMFCAGFHEGGRDSCQGDSGGPHVTEVEGTSFLTGIISWGEECAMKGKYGIYTKVSEYVNWIKNKTKLT
notes: also called R170E/R233E/E240N
Consider B5, for which the KD-WT/KD-mut in assay [1] came out at 1.7. Besides, the Kd in assay [2] stood at 54.9 nM.

B6: FIXa-R318Y/R338E/R403E/E410N (enzyme)
chain 1: YNSGKLEEFVQGNLERECMEEKCSFEEAREVFENTERTTEFWKQYVDGDQCESNPCLNGGSCKDDINSYECWCPFGFEGKNCELDVTCNIKNGRCEQFCKNSADNKVVCSCTEGYRLAENQKSCEPAVPFPCGRVSVSQTSKLTR
chain 2: VVGGEDAKPGQFPWQVVLNGKVDAFCGGSIVNEKWIVTAAHCVETGVKITVVAGEHNIEETEHTEQKRNVIRIIPHHNYNAAINKYNHDIALLELDEPLVLNSYVTPICIADKEYTNIFLKFGSGYVSGWGRVFHKGYSALVLQYLRVPLVDRATCLESTKFTIYNNMFCAGFHEGGRDSCQGDSGGPHVTEVEGTSFLTGIISWGEECAMKGKYGIYTKVSEYVNWIKNKTKLT
notes: also called R150Y/R170E/R233E/E240N
As to B6, the KD-WT/KD-mut in assay [1] was found to be 2. Besides, in assay [2], the Kd was 47 nM.

B7: FIXa-R318Y/R338E/E410N (enzyme)
chain 1: YNSGKLEEFVQGNLERECMEEKCSFEEAREVFENTERTTEFWKQYVDGDQCESNPCLNGGSCKDDINSYECWCPFGFEGKNCELDVTCNIKNGRCEQFCKNSADNKVVCSCTEGYRLAENQKSCEPAVPFPCGRVSVSQTSKLTR
chain 2: VVGGEDAKPGQFPWQVVLNGKVDAFCGGSIVNEKWIVTAAHCVETGVKITVVAGEHNIEETEHTEQKRNVIRIIPHHNYNAAINKYNHDIALLELDEPLVLNSYVTPICIADKEYTNIFLKFGSGYVSGWGRVFHKGYSALVLQYLRVPLVDRATCLESTKFTIYNNMFCAGFHEGGRDSCQGDSGGPHVTEVEGTSFLTGIISWGEECAMKGKYGIYTKVSRYVNWIKNKTKLT
notes: also called R150Y/R170E/E240N
As for B7, the KD-WT/KD-mut in assay [1] was 12.4. The Kd in assay [2] stood at 7.7 nM.

B8: FIXa-D104N/K106S/K247N/N249S/N260S (enzyme)
chain 1: YNSGKLEEFVQGNLERECMEEKCSFEEAREVFENTERTTEFWKQYVDGDQCESNPCLNGGSCKDDINSYECWCPFGFEGKNCELDVTCNIKNGRCEQFCKNSANNSVVCSCTEGYRLAENQKSCEPAVPFPCGRVSVSQTSKLTR
chain 2: VVGGEDAKPGQFPWQVVLNGKVDAFCGGSIVNEKWIVTAAHCVETGVKITVVAGEHNIEETEHTEQNRSVIRIIPHHNYSAAINKYNHDIALLELDEPLVLNSYVTPICIADKEYTNIFLKFGSGYVSGWGRVFHKGRSALVLQYLRVPLVDRATCLRSTKFTIYNNMFCAGFHEGGRDSCQGDSGGPHVTEVEGTSFLTGIISWGEECAMKGKYGIYTKVSRYVNWIKEKTKLT
The molecule B8 showed an IC50 in assay [3] of 1260 nM.

B9: FIXa-K247N/N249S/N260S/R318Y/R338E/R403E/E410N (enzyme)
chain 1: YNSGKLEEFVQGNLERECMEEKCSFEEAREVFENTERTTEFWKQYVDGDQCESNPCLNGGSCKDDINSYECWCPFGFEGKNCELDVTCNIKNGRCEQFCKNSADNKVVCSCTEGYRLAENQKSCEPAVPFPCGRVSVSQTSKLTR
chain 2: VVGGEDAKPGQFPWQVVLNGKVDAFCGGSIVNEKWIVTAAHCVETGVKITVVAGEHNIEETEHTEQNRSVIRIIPHHNYSAAINKYNHDIALLELDEPLVLNSYVTPICIADKEYTNIFLKFGSGYVSGWGRVFHKGYSALVLQYLRVPLVDRATCLESTKFTIYNNMFCAGFHEGGRDSCQGDSGGPHVTEVEGTSFLTGIISWGEECAMKGKYGIYTKVSEYVNWIKNKTKLT
notes: also called K82N/N84S/N95S/R150Y/R170E/R233E/E240N (chymotrypsin numbering)
Molecule B9 came in with an IC50 in assay [3] of 5560 nM.

B10: FIXa-D104N/K106S/Y155F/K247N/N249S/N260S (enzyme)
chain 1: YNSGKLEEFVQGNLERECMEEKCSFEEAREVFENTERTTEFWKQYVDGDQCESNPCLNGGSCKDDINSYECWCPFGFEGKNCELDVTCNIKNGRCEQFCKNSANNSVVCSCTEGYRLAENQKSCEPAVPFPCGRVSVSQTSKLTR
chain 2: VVGGEDAKPGQFPWQVVLNGKVDAFCGGSIVNEKWIVTAAHCVETGVKITVVAGEHNIEETEHTEQNRSVIRIIPHHNYSAAINKYNHDIALLELDEPLVLNSYVTPICIADKEYTNIFLKFGSGYVSGWGRVFHKGRSALVLQYLRVPLVDRATCLRSTKFTIYNNMFCAGFHEGGRDSCQGDSGGPHVTEVEGTSFLTGIISWGEECAMKGKYGIYTKVSRYVNWIKEKTKLT
The molecule B10 displayed an IC50 in assay [3] of 692 nM.
